# A protein production outcome set (Wang et al. 2014)
# Test: label from the status in PepcDB records
# 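Note: failed if final PepcDB status was selected cloned or expressed and not failed if soluble or beyond.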
row,Sequence,protein production
1,MLTGNKPAVQRRFIGLLMLSVLVAGCSSNPLANFAPGYPPTIEPAQPAVSPPTSQDPAGAVRPLSGHPRAALFDNGTRQLVALRPGADSAAPASIMVFDDVHVAPRVIFLPGPAAALTSDDHGTAFLAARGGYFVADLSSGHTARVNVADAAHTDFTAIARRSDGKLVLGSADGAVYTLAKNPAVDPASGAATVASRTKIFARVDALVTQGNTTVVLDRGQTSVTTIGADGHAQQALRAGQGATTMAADPLGRVLIADTRGGQLLVYGVDPLILRQAYPVRQAPYGLAGSRELAWVSQTASNTVIGYDLTTGIPVEKVRYPTVQQPNSLAFDETSDTLYVVSGSGAGSRFIEHAAGTR,failed
2,MLTLIKRTVLAAGLIGTTLGAAAQPPRAYPLKDFFRNPERGYFRLADDGKTLGFMQPVSIDGQPPRMNIYVQALADGVPAGEPRKLTSETARDISNFFWKGDDTVLYQKDFGGDENFHVLAVNARTGQVADLTPYEGVRASIEDDLPDDPDHVLISHNRRDPQVFDVYRVNVRTGAAELVAQNPGNVVGWQTDHAGKVRAAITSDGLNTTLLYRDDEAAPFRPLITTDYRVSVSPAFFTFDDRKLYALSNRGRDKLALVVIDPATPDVEQPVFEPDEVDLDAAGYSRKRKVLTVASYQTDKPRHRFFDAETEALYARLARALPGYDFALQGWNRDEDTFIVAAYNDRTPGSRYLYDARRDSLHKLADINPAIPEADMAPVRPVSYQSRDGLTIHGYLTLPAGRAPRNLACIVNPHGGPWARDGWGYNPEVQFLANRGFCVLQMNFRGSTGYGRKFWEAGFGQWGLKMQDDITDGVQWLIDQGIADPRRIGIYGGSYGGYATLAGVAFTPDLYAAAVDYVGVSNLFTFMNTIPPYWKPLLAKMQDMVGDPVRDKARLEATSPALHVDRIKTPLFIAQGAKDPRVNKAESDQVVQALRQRGVEVEYMVKDNEGHGFHNDENKFEFYAAMEKFFTEHLKP,failed
3,MLTRYLAIAAIALALTGLGGCSVNPVTGEKQLSLISENQELALGAEQYTPTQQTQGGRFYIDPELSIYVRDVGQKLARVSDRPDLPYEFVVLNNSVPNAWALPGGKIAINRGLLVELEDEAQLASVLGHEIVHAAARHSVQRMQQGMLISAGVAGLGFALSDNEWAGLIMGGAALGAQLALAQYSQGDELESDAYGIRYMKEAGYDPQAAVELQQLFLKLSEGRQSGWLDGLFATHPPSAKRVQENQELVQNIGSGGYRGRDVYQRRIAKLKELQPAYDAHDEAMKLASEGKFEAALDQVNKAIKLEPREAMLFALRGRIYRGMEQPEKAKADFDKAVSLYPEMFQYQLYSGLNELELNNLGKAKTHLEKANQVVPTSIAYLRLGDIARQQGQRSEAVAYYSTAAEAGGDVGAEAQRKLAELSN,failed
4,MLTVKQRETDCPMDLNTLISQYGYAALVIGSLAEGETVTLLGGVAAHQGLLKFPLVVLSVALGGMIGDQVLYLCGRRFGGKLLRRFSKHQDKIERAQKLIQRHPYLFVIGTRFMYGFRVIGPTLIGASQLPPKIFLPLNILGAFAWALIFTTIGYAGGQVIAPWLHNLDQHLKHWVWLILVVVLVVGVRWWLKRSGKKKPDHQA,failed
5,MLTYQVKQGDTLNSIAADFRISTAALLQANPSLQAGLTAGQSIVIPGLPDPYTIPYHIAVSIGAKTLTLSLNNRVMKTYPIAVGKILTQTPTGEFYIINRQRNPGGPFGAYWLSLSKQHYGIHGTNNPASIGKAVSKGCIRMHNKDVIELASIVPNGTRVTINR,not failed
6,MLVAAQQQGPPMPRPSHLMILALTAAALYIYALASDNTMLALMAKPIPVLALIAWLRSTPVSPYRTWISIGLGFSVLGDILLAIPADLFVFGLAAFLCAHLAYLRGYCGITLRPALPALIFSAITGIALLGVLASNGLGPLLIPVALYALAISAMLWRALACGGVAALGAGLFVFSDSLIGIDRFISPFAAAPYLIILAYWLGQWAIASSVGHRSTDKVLTQSGARRTESC,failed
7,MLVAPFASQLPFVEETLHSSYQALQWGKNIFAIAHKTLSARLLNTVFPTEERTQPLSPELQAWLKERYEALLQQDWQDAAAGFYPATLLFDAPWEEFLRFYPLLLLDLPQMWQRARSRQFQEFAHNVRLEDYPQYYRQNFHYQTDGYLSDTSANLYDIQVELLFGGTADAMRRRVIAPIAQQVVAHPPTPPLRILDVACGTGRTLKQLRYAFPGAVLFGLDLSPAYLRKANALLATQTGALPQLIQGNAESLPYVDSYFSAITCVFLFHELPAPVRQNVIHECARVLQPGGIFVICDSIQSLDSPEQRPMMENFANLFHEPFYRNYIEDDLNLRLEKAGLVVKEVQHHFMSKYWVAVKPSLEHHHHHH,failed
8,MLVCYSVLACEILWDLPCSIMGSPLGHFTWDKYLKETCSVPAPVHCFKQSYTPPSNEFKISMKLEAQDPRNTTSTCIATVVGLTGARLRLRLDGSDNKNDFWRLVDSAEIQPIGNCEKNGGMLQPPLGFRLNASSWPMFLLKTLNGAEMAPIRIFHKEPPSPSHNFFKMGMKLEAVDRKNPHFICPATIGEVRGSEVLVTFDGWRGAFDYWCRFDSRDIFPVGWCSLTGDNLQPPGTKVVIPKNPYPASDVNTEKPSIHSSTKTVLEHQPGQRGRKPGKKRGRTPKTLISHPISAPSKTAEPLKFPKKRGPKPGSKRKPRTLLNPPPASPTTSTPEPDTSTVPQDAATIPSSAMQAPTVCIYLNKNGSTGPHLDKKKVQQLPDHFGPARASVVLQQAVQACIDCAYHQKTVFSFLKQGHGGEVISAVFDREQHTLNLPAVNSITYVLRFLEKLCHNLRSDNLFGNQPFTQTHLSLTAIEYSHSHDRYLPGETFVLGNSLARSLEPHSDSMDSASNPTNLVSTSQRHRPLLSSCGLPPSTASAVRRLCSRGVLKGSNERRDMESFWKLNRSPGSDRYLESRDASRLSGRDPSSWTVEDVMQFVREADPQLGPHADLFRKHEIDGKALLLLRSDMMMKYMGLKLGPALKLSYHIDRLKQGKF,failed
9,MLVEDSGHHLPESADIENALDLLLKAQLERAFGPELAEHFWAARQPRTLDERLAFIRKCWIGVFKDSPLSTFGLERLEQLERLCRSKRRGRELSAAEHHQFAEELARLWEQVQRLLPRAAPETSYASSASAGGVHSGDAHTPATLSDAESAHAAPEAMRIEAPATSARSASGCMARVSSDVAAAATNVSLVVLDGENIAWAHGQNAVFSPKGIAIAVDFFRKRGYRCVVFLPDYRRKRADLPTVSASDALVFVPAGEYDDTFALGYAVGHDAILVTNDLLQDHLDQFYPDEGEAREALRKWLGSHRCSFTFVGDEFLPNPHFFLP,failed
10,MLVFLTRFTPMNLIRNRWAQIFTQSILGVLIAGGTAWAGDPFRPNNPHNIGDQTEAAFEAIFRDGNYRGAEEILAGAIQAEPNEPLVYAMQASFAYDANDMEGMRKYAQQTLESAQRLAPSDPLRGNLYIAVGHFLEGSYLLKKGSYLQAVGKTGTVFEHLDKASAINPNDPELNLLRGYLDLFLSRYTPFSQSEQVISRFEQYAAPDYLRYRALATTYRDLEKYDLAMANIDRALAITPDNPELQYLKGQFLRNEGRRSMDLGKLQQAQQYYAMALQKQDQLSRALVVQLNHENNAVVDEIQKLAQNPSLKGF,failed
11,MLVGPAPTTDGSAENTLNEKRLVHGSIAFWLGPRAPQTKTHRWTVYVRGARDPLEDLSLYIQKVEFVLHESFADPVRVVKEPPFCLTEHGWGEFEVIIRLFPISDPDKPVEMYHPLRLFPSVGQELTEKPVVSEHLDVLVFSQPAPEVERALHRSDVARMPSDCWGDLMPLFGGDLHQVEEEDLRKVQQARERVRQQIQATRLQYEALTAELARARTHALHRELS,not failed
12,MLVGSQLIEIVIDSLRYENLKEILDEMFRDEVQKLKYFLEDVKEEDEELYNKIVDALKLFKENYEIEDIKIPKKIRVFLVKNNILFLNPQKGSLKPQSYLVWNAIKMLL,failed
13,MLVRLKETDQRTMISRIKALAPPVQKAGAALLIDGHAELVARGGADGAHLPGIAALKEALPSLKPDRIAGVGGLTTRHHSMDAGEIGADYLLFGEPDAKGQRPSSEAIAERLDWWAELFEPPCVGFATSLEEAYDFAASGADFVLVGEFVWADPRGAKAALIEADATIKKAHAAALASQNPAGEHG,failed
14,MLVRLTMICNGATAATRRGSFPLDEPLEPRSLTRAKAMRGTLRHADRAWTAPALRARQIAEALSLEAAVEPLLADQDHGSWAGKSFEDVQAEQPGDIAAWLADPDAAPHGGESLADVARRASGLMEKLMAEPGHTIAMTHASVIRTAIVHVLGAPLAACWKIDIEPLSITDFRSDGRRWVLRACGVTSPKAAKPLLR,failed
15,MLVTKLAPDFKAPAVLGNNEVDEHFELSKNLGKNGAILFFWPKDFTFVCPTEIIAFDKRVKDFQEKGFNVIGVSIDSEQVHFAWKNTPVEKGGIGQVTFPMVADITKSISRDYDVLFEEAIALRGAFLIDKNMKVRHAVINDLPLGRNADEMLRMVDALLHFEEHGEVCPAGWRKGDKGMKATHQGVAEYLKENSIKL,failed
16,MLWTQVYDPFSNITLSAMVAMLPLAILFYMLAVRRAKGHVAAACGLAGAFAATVAVWGMPAGLAVNATLYGVAMGLFPIIWIVLTAVWLYNMTVESGEFEIIKSSLARLTDDRRLQALFIAFAFGAFLEGTAGFGTPVAITAAMLMGLGFSPVYAGGICLIANTAPVAFGALGIPVIVASQVSGLDTLTLSQYVGRQLPVFSLIVPLWMTVVMCGFKRTMEVMPAIVVASVCFSGTQFIFADWHGPTLPDVMAAIVTIVGLLVLLRFWKPARTWHFADEKPEAATGETRHSTGEVLRAWAPYAILAVFVFFWGLGSVKTFLNNIFIMSFEWPGLHAAIAKTAPIVKADAPYAAKFTFNLISAGGTAILFAGLLSVPVMPGYGYGRAFGCLARTCYQLRFPILTIVMILGLAQLMNYSGMSSTLGIAFTHTGALFPFFAPIMGWLGVFLTGSNTSSNALFGSMQHATASAVGVDPYLTVAANATGGVTGKMISPQSISVATASTHTVGQEGALFRFALKHSIAMTLVICVLVTLQAYVIPWMLPAR,failed
17,MLYDLTVVQFSKMLKNLNAIFDKAEAFAELKKVDMDVLLNSRLAADQFNLIRQVQIACDTAKVGVARLTGQLETAPKHDDSETTLAELRQRIASVLTYLEGFSEADFANAATIQISQPRWQGKYLTGYEFAIEHAIPNLYFHITTAYGILRHNGVEVGKKDYLGAMPYKAPIL,not failed
18,MLYLAELLQGKNALITGAGRGIGRAVAIALAKEGVNVGLLARSEENLKAVAKEVEAEGVKAVIATADVSSYEEVTTAIETLKNGLGSIDILINNAGISKFGKFLELDVADWEKIIQVNLMGVYYATRAALPSMIEQQSGDIINISSTAGQKGAPVTSAYSASKFGVLGLTESLAMEVRKHNIRVTALTPSTVATDMAVDLGLTDGNPDKVMQAEDIAEFIVAQLKLNKRTFIKSAGLWSTNP,failed
19,MLYPSKPNNEALRIQTLRELNVLDTSPEERFDRLTRLAKRLFNVPIALVSLVDADRQWFKSCVGLDVSETSRDISFCGHAILGDQILTVPDAGLDERFHDNPLVVGAPGIRFYAGCPLTVTNGSKLGTLCLIDIKPRDLDDEDRALLRDLARMAEQELAAVQMASMDELTLLSNRRGFEALARHALGVCKRLEKPATLLFFDLNDFKQINDTYGHAEGDGALKTFADVLRIAFRESDVIGRLGGDEFVALLTAADHVETSAIMARLREILDERNATLKRGYDIRFSVGQIEYDAERHPDIEALLADADKAMYLHKQASKRARLEHHHHHH,failed
20,MMAACWFGCAPAAELHAYTEDVPPLNYLDNGNVKGYSTEVLQLVAREAGFNLTVEVLPWLRAYAKARDTAGGLLYTVVRTPEREAQFQWVGPIGSRRIYMYRLGPRGNIRVDAASDLTRYRNGVLTGSATASQLQALGLQSGLNLDLGQSDAVNLKKLLLKRVDLIAMLDWAMAWQLRLQRLPENTVAPAWLLDGKLQYWFALNPHTPPEQVAKLQAALDRIRADGRLQAIRRRYRDD,failed
21,MMAAREQRSFRQLSLLRQFEGQSLLCASMNIPGPIKCSESLNKTFQSIINLVKEDLRGRIIFEREVHQKTGWEYYCLSDLPVSELKTKMIAIETKISIGRLMDLDVLHLVNGIPQPISRQELGFPRRQCYICQNDAKVCSRSRKHSVIEMQEAIAKFIKINH,failed
